According to US20250388669A1 (published 2025):

Biological target: T1, B7H3 (human, UniProt Q5ZPR3 29-466, limits assumed)
T1 sequence (looked up): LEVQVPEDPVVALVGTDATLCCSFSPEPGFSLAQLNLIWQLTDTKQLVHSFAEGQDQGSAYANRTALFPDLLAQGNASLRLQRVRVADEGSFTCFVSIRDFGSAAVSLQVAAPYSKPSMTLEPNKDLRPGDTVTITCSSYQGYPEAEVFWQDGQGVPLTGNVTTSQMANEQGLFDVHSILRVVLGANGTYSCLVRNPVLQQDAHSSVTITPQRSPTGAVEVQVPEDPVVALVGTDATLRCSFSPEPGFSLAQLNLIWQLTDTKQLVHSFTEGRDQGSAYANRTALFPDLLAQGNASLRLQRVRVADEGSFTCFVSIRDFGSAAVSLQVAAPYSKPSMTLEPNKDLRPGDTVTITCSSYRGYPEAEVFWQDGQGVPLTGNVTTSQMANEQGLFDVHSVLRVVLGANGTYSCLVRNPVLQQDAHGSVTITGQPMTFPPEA
Assay: ELISA or FCM (Example 2)

B1: Ly2367 (other)
chain 1: QVQLVQSGAEVKKPGASVKVSCKASGYTFTSYVMHWVRQKPGQGLEWIGYINPYNEGTESTDKFKGRATMTSDKSTSTVYMELSSLRSEDTAVYYCASIYYGYEGTYFGVWGQGTLVTVSSASTKGPSVFPLAPSSKSTSGGTAALGCLVKDYFPEPVTVSWNSGALTSGVHTFPAVLQSSGLYSLSSVVTVPSSSLGTQTYICNVNHKPSNTKVDKKVEPKSCGGGGSEVQLVESGGGLVQPGGSLRLSCAASGFTFSTYAMNWVRQAPGKGLEWVGRIRSKYNNYATYYADSVKGRFTISRDDSKNSLYLQMNSLKTEDTAVYYCVRHGNFGNSYVSWFAYWGQGTLVTVSSGGGGSDKTHTCPPCPAPEAAGPSVFLFPPKPKDTLMISRTPEVTCVVVDVSHEDPEVKFNWYVDGVEVHNAKTKPREEQYNSTYRVVSVLTVLHQDWLNGKEYKCKVSNKALPAPIEKTISKAKGQPREPQVYTLPPSREEMTKNQVSLWCLVKGFYPSDIAVEWESNGQPENNYKTTPPVLDSDGSFFLYSKLTVDKSRWQQGNVFSCSVMHEALHNHYTQKSLSLSPGGGGGSGGGGSGGGGSGGGGSQVQLVQSGAEVKKPGASVKVSCKASGYTFAGFEMHWVRQAPGQGLEWMGAIDPKTGGTDYNQKFKDRVTMTRDTSISTAYMELSRLRSDDTAVYYCARDLGYFDVWGQGTLVTVSS
chain 2: QVQLVQSGAEVKKPGASVKVSCKASGYTFTSYVMHWVRQKPGQGLEWIGYINPYNEGTESTDKFKGRATMTSDKSTSTVYMELSSLRSEDTAVYYCASIYYGYEGTYFGVWGQGTLVTVSSASTKGPSVFPLAPSSKSTSGGTAALGCLVKDYFPEPVTVSWNSGALTSGVHTFPAVLQSSGLYSLSSVVTVPSSSLGTQTYICNVNHKPSNTKVDKKVEPKSCGGGGSQAVVTQEPSLTVSPGGTVTLTCRSSTGAVTTSNYANWVQQKPGQAPRGLIGGTNKRAPWTPARFSGSLLGGKAALTITGAQAEDEADYYCALWYSNLWVFGGGTKLTVLGGGGSDKTHTCPPCPAPEAAGPSVFLFPPKPKDTLMISRTPEVTCVVVDVSHEDPEVKFNWYVDGVEVHNAKTKPREEQYNSTYRVVSVLTVLHQDWLNGKEYKCKVSNKALPAPIEKTISKAKGQPREPQVYTLPPSREEMTKNQVSLSCAVKGFYPSDIAVEWESNGQPENNYKTTPPVLDSDGSFFLVSKLTVDKSRWQQGNVFSCSVMHEALHNRFTQKSLSLSPGGGGGSGGGGSGGGGSGGGGSDIQMTQSPSSLSASVGDRVTITCRASQDIRSNLNWYQQKPGGAVKLLIYYTSRLHSGVPSRFSGSGSGTDYTLTISSLQPEDFATYFCQQSEKLPRTFGGGTKVEIR
light: EIVLTQSPATLSLSPGERATLSCRASSSVSYMHWYQQKPGQAPRPWIYATSNLASGIPARFSGSRSGTDYTLTISSLEPEDFAVYYCQQWSSNTLTFGGGTKVEIKRTVAAPSVFIFPPSDEQLKSGTASVVCLLNNFYPREAKVQWKVDNALQSGNSQESVTEQDSKDSTYSLSSTLTLSKADYEKHKVYACEVTHQGLSSPVTKSFNRGEC
notes: Tri-specific antibody: B7H3 Fabs, central CD3 Fv, terminal CD137 Fv; Flexible linker is G4S
- binding result: binds

B2: Ly2368 (other)
chain 1: QVQLVQSGAEVKKPGASVKVSCKASGYTFTSYVMHWVRQKPGQGLEWIGYINPYNEGTESTDKFKGRATMTSDKSTSTVYMELSSLRSEDTAVYYCASIYYGYEGTYFGVWGQGTLVTVSSASTKGPSVFPLAPSSKSTSGGTAALGCLVKDYFPEPVTVSWNSGALTSGVHTFPAVLQSSGLYSLSSVVTVPSSSLGTQTYICNVNHKPSNTKVDKKVEPKSCEVQLVESGGGLVQPGGSLRLSCAASGFTFSTYAMNWVRQAPGKGLEWVGRIRSKYNNYATYYADSVKGRFTISRDDSKNSLYLQMNSLKTEDTAVYYCVRHGNFGNSYVSWFAYWGQGTLVTVSSGGGGSDKTHTCPPCPAPEAAGPSVFLFPPKPKDTLMISRTPEVTCVVVDVSHEDPEVKFNWYVDGVEVHNAKTKPREEQYNSTYRVVSVLTVLHQDWLNGKEYKCKVSNKALPAPIEKTISKAKGQPREPQVYTLPPSREEMTKNQVSLWCLVKGFYPSDIAVEWESNGQPENNYKTTPPVLDSDGSFFLYSKLTVDKSRWQQGNVFSCSVMHEALHNHYTQKSLSLSPGGGGGSGGGGSGGGGSGGGGSQVQLVQSGAEVKKPGASVKVSCKASGYTFAGFEMHWVRQAPGQGLEWMGAIDPKTGGTDYNQKFKDRVTMTRDTSISTAYMELSRLRSDDTAVYYCARDLGYFDVWGQGTLVTVSS
chain 2: QVQLVQSGAEVKKPGASVKVSCKASGYTFTSYVMHWVRQKPGQGLEWIGYINPYNEGTESTDKFKGRATMTSDKSTSTVYMELSSLRSEDTAVYYCASIYYGYEGTYFGVWGQGTLVTVSSASTKGPSVFPLAPSSKSTSGGTAALGCLVKDYFPEPVTVSWNSGALTSGVHTFPAVLQSSGLYSLSSVVTVPSSSLGTQTYICNVNHKPSNTKVDKKVEPKSCQAVVTQEPSLTVSPGGTVTLTCRSSTGAVTTSNYANWVQQKPGQAPRGLIGGTNKRAPWTPARFSGSLLGGKAALTITGAQAEDEADYYCALWYSNLWVFGGGTKLTVLGGGGSDKTHTCPPCPAPEAAGPSVFLFPPKPKDTLMISRTPEVTCVVVDVSHEDPEVKFNWYVDGVEVHNAKTKPREEQYNSTYRVVSVLTVLHQDWLNGKEYKCKVSNKALPAPIEKTISKAKGQPREPQVYTLPPSREEMTKNQVSLSCAVKGFYPSDIAVEWESNGQPENNYKTTPPVLDSDGSFFLVSKLTVDKSRWQQGNVFSCSVMHEALHNRFTQKSLSLSPGGGGGSGGGGSGGGGSGGGGSDIQMTQSPSSLSASVGDRVTITCRASQDIRSNLNWYQQKPGGAVKLLIYYTSRLHSGVPSRFSGSGSGTDYTLTISSLQPEDFATYFCQQSEKLPRTFGGGTKVEIR
light: B1 light
notes: Tri-specific antibody: B7H3 Fabs, central CD3 Fv, terminal CD137 Fv; It has no flexible linker
- binding result: binds

B3: Ly2384 (other)
chain 1: QVQLVQSGAEVKKPGASVKVSCKASGYTFTSYVMHWVRQKPGQGLEWIGYINPYNEGTESTDKFKGRATMTSDKSTSTVYMELSSLRSEDTAVYYCASIYYGYEGTYFGVWGQGTLVTVSSASTKGPSVFPLAPSSKSTSGGTAALGCLVKDYFPEPVTVSWNSGALTSGVHTFPAVLQSSGLYSLSSVVTVPSSSLGTQTYICNVNHKPSNTKVDKKVEPKSCGGGSEVQLVESGGGLVQPGGSLRLSCAASGFTFSTYAMNWVRQAPGKGLEWVGRIRSKYNNYATYYADSVKGRFTISRDDSKNSLYLQMNSLKTEDTAVYYCVRHGNFGNSYVSWFAYWGQGTLVTVSSGGGGSDKTHTCPPCPAPEAAGPSVFLFPPKPKDTLMISRTPEVTCVVVDVSHEDPEVKFNWYVDGVEVHNAKTKPREEQYNSTYRVVSVLTVLHQDWLNGKEYKCKVSNKALPAPIEKTISKAKGQPREPQVYTLPPSREEMTKNQVSLWCLVKGFYPSDIAVEWESNGQPENNYKTTPPVLDSDGSFFLYSKLTVDKSRWQQGNVFSCSVMHEALHNHYTQKSLSLSPGGGGGSGGGGSGGGGSGGGGSQVQLVQSGAEVKKPGASVKVSCKASGYTFAGFEMHWVRQAPGQGLEWMGAIDPKTGGTDYNQKFKDRVTMTRDTSISTAYMELSRLRSDDTAVYYCARDLGYFDVWGQGTLVTVSS
chain 2: QVQLVQSGAEVKKPGASVKVSCKASGYTFTSYVMHWVRQKPGQGLEWIGYINPYNEGTESTDKFKGRATMTSDKSTSTVYMELSSLRSEDTAVYYCASIYYGYEGTYFGVWGQGTLVTVSSASTKGPSVFPLAPSSKSTSGGTAALGCLVKDYFPEPVTVSWNSGALTSGVHTFPAVLQSSGLYSLSSVVTVPSSSLGTQTYICNVNHKPSNTKVDKKVEPKSCGGGSQAVVTQEPSLTVSPGGTVTLTCRSSTGAVTTSNYANWVQQKPGQAPRGLIGGTNKRAPWTPARFSGSLLGGKAALTITGAQAEDEADYYCALWYSNLWVFGGGTKLTVLGGGGSDKTHTCPPCPAPEAAGPSVFLFPPKPKDTLMISRTPEVTCVVVDVSHEDPEVKFNWYVDGVEVHNAKTKPREEQYNSTYRVVSVLTVLHQDWLNGKEYKCKVSNKALPAPIEKTISKAKGQPREPQVYTLPPSREEMTKNQVSLSCAVKGFYPSDIAVEWESNGQPENNYKTTPPVLDSDGSFFLVSKLTVDKSRWQQGNVFSCSVMHEALHNRFTQKSLSLSPGGGGGSGGGGSGGGGSGGGGSDIQMTQSPSSLSASVGDRVTITCRASQDIRSNLNWYQQKPGGAVKLLIYYTSRLHSGVPSRFSGSGSGTDYTLTISSLQPEDFATYFCQQSEKLPRTFGGGTKVEIR
light: B1 light
notes: Tri-specific antibody: B7H3 Fabs, central CD3 Fv, terminal CD137 Fv; Flexible linker is G3S
- binding result: binds
